Results taken from paper PMC6019379, “RecA-like domain 2 of DNA-dependent ATPase A domain, a SWI2/SNF2 protein, mediates conformational integrity and ATP hydrolysis” (Bioscience Reports, 2018).
Numbering of substitutions follows the chain as printed.

Tests used:
Experiment in all cases: intrinsic tryptophan fluorescence titration; no ATP; Fluorescence titration (ex 295 nm, em 340 nm), one-site saturation fit; buffer, salt, pH and temperature not given in the material. Wild-type ADAAD Kd values are cited from ref 24 and not listed
Details in all cases: protein: recombinant; tags: His (Ni-NTA, pET-14b); hairpin
ADAAD H594A = molecular target: T1, ADAAD H594A (Bos taurus (bovine), UniProt Q9TTA5 221-940, H814A)
T1 sequence: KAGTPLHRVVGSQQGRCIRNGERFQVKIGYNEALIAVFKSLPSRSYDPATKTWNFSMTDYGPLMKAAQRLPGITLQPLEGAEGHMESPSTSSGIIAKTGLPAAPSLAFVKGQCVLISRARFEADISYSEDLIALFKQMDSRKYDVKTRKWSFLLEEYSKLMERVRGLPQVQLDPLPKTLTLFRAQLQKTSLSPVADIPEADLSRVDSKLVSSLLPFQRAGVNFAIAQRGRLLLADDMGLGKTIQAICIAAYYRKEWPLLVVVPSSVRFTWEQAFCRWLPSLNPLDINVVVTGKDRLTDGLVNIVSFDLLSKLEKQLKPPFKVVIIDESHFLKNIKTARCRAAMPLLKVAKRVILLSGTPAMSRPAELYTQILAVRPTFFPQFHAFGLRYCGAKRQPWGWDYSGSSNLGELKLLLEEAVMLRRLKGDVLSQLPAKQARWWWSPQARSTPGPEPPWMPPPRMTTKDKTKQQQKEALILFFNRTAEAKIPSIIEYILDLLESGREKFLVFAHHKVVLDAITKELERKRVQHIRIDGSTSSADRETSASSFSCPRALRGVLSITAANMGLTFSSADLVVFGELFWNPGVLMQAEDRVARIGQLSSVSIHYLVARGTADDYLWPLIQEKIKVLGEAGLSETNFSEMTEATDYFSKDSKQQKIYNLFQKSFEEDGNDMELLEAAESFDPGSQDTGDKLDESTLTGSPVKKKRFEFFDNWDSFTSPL

ADAAD R595A = molecular target: T2, ADAAD R595A (Bos taurus (bovine), UniProt Q9TTA5 221-940, R815A)
T2 sequence: T1 sequence with A594H, R595A

ADAAD H329D/D591H = molecular target: T3, ADAAD H329D/D591H (Bos taurus (bovine), UniProt Q9TTA5 221-940, H549D;D811H)
T3 sequence: T1 sequence with H329D, D591H, A594H

Binder GCGCAATTGCGCTCGACGATTTTTTAGCGCAATTGCGC (structured_DNA) [slDNA (stem-loop DNA)] has a Kd (ADAAD H594A) of 10.9 ± 2.6 nM, a Kd (ADAAD R595A) of 24 ± 0.6 nM and a Kd (ADAAD H329D/D591H) of 16.1 ± 5.7 nM.
